Data on six molecules can be found in US20110053865A1 (Ablynx, published 2011).

Where “and” joins values, the source holds several entries; their conditions need not be identical. Equal entries are not always repeated. Where two headings read alike, the source gives them in different places.

In assay [1] the target is T1, cynomolgus IL-23 (cynomolgus).
T1 construct: also called cyno IL-23; cIL-23
Kind of assay: alpha-screen, cyno IL-23/IL-23R-Fc.

For assay [2], the target named is T2, recombinant human IL-23 (p19/p40) (human, UniProt Q9NPF7 20-189; P29460 23-328).
T2 sequence (looked up) 1: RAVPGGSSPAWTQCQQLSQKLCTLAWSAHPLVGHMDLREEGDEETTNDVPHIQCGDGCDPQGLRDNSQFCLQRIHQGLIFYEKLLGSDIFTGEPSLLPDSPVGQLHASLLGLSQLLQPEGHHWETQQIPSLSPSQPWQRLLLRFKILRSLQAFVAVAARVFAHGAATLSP
T2 sequence (looked up) 2: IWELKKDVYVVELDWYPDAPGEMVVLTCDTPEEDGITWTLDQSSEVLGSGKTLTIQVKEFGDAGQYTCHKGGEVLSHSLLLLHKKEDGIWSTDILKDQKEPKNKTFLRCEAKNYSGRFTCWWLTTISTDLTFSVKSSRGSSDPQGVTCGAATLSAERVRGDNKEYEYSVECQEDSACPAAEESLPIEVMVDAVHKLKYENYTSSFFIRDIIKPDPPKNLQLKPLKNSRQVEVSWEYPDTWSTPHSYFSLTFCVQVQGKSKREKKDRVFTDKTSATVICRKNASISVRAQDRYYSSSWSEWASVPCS
As to the kind of experiment: cell-based or functional assay.

The target of assay [3] is T2, recombinant human IL-23 (p19/p40). As to the kind of experiment: SPR Biacore, hIL-23 on chip.
Assay [4] has the same target. As to the kind of experiment: alpha-screen, hIL-23/IL-23R-Fc.
For assay [5] the target is unchanged. As to the kind of experiment: comp alpha-screen hIL-23.
The target of assay [6] is T1, cynomolgus IL-23. Kind of assay: cell-based or functional assay.
The target in assay [7] is T2, recombinant human IL-23 (p19/p40). As to the kind of experiment: cell-based or functional assay. The source holds these as a separate data set.
In assay [8] the target is T1, cynomolgus IL-23. Kind of assay: SPR Biacore, cyno IL-23 on chip.
The target in assay [9] is T1, cynomolgus IL-23. Kind of assay: cell-based or functional assay. This is another data set of the same source.
In assay [10] the target is T2, recombinant human IL-23 (p19/p40). As to the kind of experiment: cell-based or functional assay. This is another data set of the same source.
Assay [11] has the same target. As to the kind of experiment: 'potency assay', not specified (probably the inhibition ELISA of Example 34).
The target is the same in assay [12]. As to the kind of experiment: SPR Biacore, hIL-23 on chip, several concentrations.
Assay [13] has as its target T1, cynomolgus IL-23. Kind of assay: alpha-screen, cIL-23/hIL-23R.
The target of assay [14] is T2, recombinant human IL-23 (p19/p40). Kind of assay: SPR Biacore 3000, hIL-23 on chip, 100 nM only (indicative).
Assay [15] has the same target. Kind of assay: SPR Biacore, hIL-23; kd2 200-1000 s.
For assay [16] the target is unchanged. As to the kind of experiment: alpha-screen, hIL-23/hIL-23R.
Assay [17] addresses T1, cynomolgus IL-23. As to the kind of experiment: cell-based or functional assay. The source holds these as a separate data set.
Assay [18] concerns the target T2, recombinant human IL-23 (p19/p40). Kind of assay: cell-based or functional assay. The source holds these as a separate data set.
The target is the same in assay [19]. Kind of assay: SPR Biacore 3000, hIL-23 on chip.
Assay [20] has the same target. Kind of assay: inhibition ELISA, hIL-23/hIL-23R-Fc.
Assay [21] shares this target. As to the kind of experiment: SPR Biacore, hIL-23; kd1 125-155 s.
Assay [22] has the same target. Kind of assay: alpha-screen, hIL-23/IL-23R.
Assay [23] concerns the target T1, cynomolgus IL-23. Kind of assay: alpha-screen, cIL-23/IL-23R.
In assay [24] the target is T1, cynomolgus IL-23. As to the kind of experiment: cell-based or functional assay. This is another data set of the same source.
For assay [25], the target named is T2, recombinant human IL-23 (p19/p40). Kind of assay: cell-based or functional assay. This is another data set of the same source.
Assay [26] has the same target. Kind of assay: cell-based or functional assay. This is another data set of the same source.
Assay [27] concerns the target T3, native human IL-23 (supernatant of SAC-stimulated THP-1 cells) (human, UniProt Q9NPF7 20-189; P29460 23-328).
T3 sequence (looked up) 1: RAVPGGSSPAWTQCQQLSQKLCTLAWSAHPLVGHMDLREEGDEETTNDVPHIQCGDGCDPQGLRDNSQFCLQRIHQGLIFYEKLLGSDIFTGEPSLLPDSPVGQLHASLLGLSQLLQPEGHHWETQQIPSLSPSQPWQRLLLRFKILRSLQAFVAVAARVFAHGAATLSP
T3 sequence (looked up) 2: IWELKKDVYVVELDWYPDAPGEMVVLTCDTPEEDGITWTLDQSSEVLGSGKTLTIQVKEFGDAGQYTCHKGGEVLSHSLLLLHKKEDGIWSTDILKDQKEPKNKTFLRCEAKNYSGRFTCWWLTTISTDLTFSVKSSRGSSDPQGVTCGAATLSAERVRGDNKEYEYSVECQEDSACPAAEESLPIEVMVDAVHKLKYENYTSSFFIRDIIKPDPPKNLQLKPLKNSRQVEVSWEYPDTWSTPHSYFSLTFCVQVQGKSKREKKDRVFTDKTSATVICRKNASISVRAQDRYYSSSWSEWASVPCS
As to the kind of experiment: cell-based or functional assay.

B1: P23IL37D5 (VHH)
VHH: EVQLVESGGGLVQPGGSLRLSCAASGFTLDYLAIGWFRQAPGKEREGVSCVSSSGQYTYYADSVKGRFTISRDNAESTVYLQMNSLKPEDTAVYYCATDPECYRVRGYYNGEYDYWGQGTQVTVSS
notes: p19+ Nanobody; c-myc, His6-tagged; also called PIL2337D5
Regarding B1, the IC50 was 0.32 nM in assay [1], 0.11 nM in [4], 0.176 nM in assay [5] and 0.0384 nM in [11]. Also, the “IC50, BAF3 proliferation assay, 76 pM hIL-23” value in [2] came out at 13 pM. Besides, the koff is 0.00019 s⁻¹ in assay [3], 0.00051 s⁻¹ in [8] and 0.00018 s⁻¹ in assay [12]. The “IC50, splenocyte assay, 3.8 pM cIL-23” value in assay [6] came to 212 pM. Moreover, the “IC50, splenocyte assay, 19 pM hIL-23” value in assay [7] amounted to 24 pM. Besides, the entries for the “IC50, mouse splenocyte assay (mIL-22)” value in assay [9] and in [10] were 0.288 nM and 0.017 nM, respectively. Further, in assay [12], the Kd worked out at 0.57 nM.

B2: P23IL119A3 (VHH)
VHH: EVQLVESGGGLVQAGGSLRLSCAASGRIFSLPASGNIFNLLTIAWHRQAPGMQRELVATINSGSRTNYADSVKGRFTISRDNAQKTVYLQMNNLKPEDTAVYYCQTSGSGSPNFWGQGTQVTVSS
notes: p19+ Nanobody
Take B2: the IC50 amounted to 0.5 nM in [13]; 1.21 nM in [16]; 1.76 nM in assay [20]; 0.76 nM in assay [22]; 0.42 nM in [23]. In addition, the Kd in assay [14] was found to be 1.4 nM. Also, in [14], the kon is 3.7e+06 M⁻¹ s⁻¹. Moreover, the figures for the koff in assay [15], in assay [19] and in assay [21] were 0.0014 s⁻¹, 0.0048 s⁻¹ and 0.0041 s⁻¹, respectively. For the same molecule, the “IC50, splenocyte assay cIL-23” value in assay [17] and in assay [24] was 60.5 nM in each case. For the same molecule, the “IC50, splenocyte assay hIL-23” value in assay [18] and in [25] was 16.8 nM in each case. Further, the “IC50, mouse splenocyte assay (mIL-22)” value worked out at 37.4 nM in assay [9] and 25.5 nM in assay [10].

B3: P23IL119A3-BASIC (VHH)
VHH: EVQLVESGGGLVQPGGSLRLSCAASGRIFSLPASGNIFNLLTIAWYRQAPGMQRELVATINSGSRTNYADSVKGRFTISRDNAQKTLYLQMNNLRPEDTAVYYCQTSGSGSPNFWGQGTLVTVSS
As for B3, the concentration for half-maximal inhibition (IC50) in assay [13] was 0.73 nM; in assay [16], 1.47 nM. In addition, the off-rate (koff) in assay [15] was found to be 0.002 s⁻¹; in assay [21], 0.0052 s⁻¹. In addition, the “IC50, splenocyte assay cIL-23” value in [17] is 66.6 nM. Besides, in [18], the “IC50, splenocyte assay hIL-23” value is 37.3 nM.

B4: P23IL36A4 (VHH)
VHH: EVQLVESGGGLVQAGGSLRLSCVASERTFSSSAMGWFRQAPGKEREFVAAIGWSGGGFIHYGDSVKGRFTISADNGKNTVYLQMNSLKPEDTAVYYCAADSRLRGIALLKGSYDYRGQGTQVTVSS
notes: p19+ Nanobody; c-myc, His6-tagged; also called P23IL 36A4 (=36G2); 36G2
Consider B4, for which the figures for the IC50 in [1] and in [4] were 0.47 nM and 1 nM, respectively. For the same molecule, the koff was 0.0009 s⁻¹ in assay [3] and 0.0012 s⁻¹ in assay [8]. For the same molecule, the “IC50, mouse splenocyte assay (mIL-22)” value in assay [9] was determined as 11 nM; in [10], 3.12 nM.

B5: 23IL0038 (PEG40 form not stated) (bispecific antibody)
chain: EVQLVESGGGLVQAGGSLRLSCAASGRIFSLPASGNIFNLLTIAWHRQAPGMQRELVATINSGSRTNYADSVKGRFTISRDNAQKTVYLQMNNLKPEDTAVYYCQTSGSGSPNFWGQGTQVTVSSGGGGSGGGGSGGGGSGGGGSGGGGSGGGGSGGGGSEVQLVESGGGLVQPGGSLRLSCIASGLPFSTKSMGWFRQAPGKEREFVARISPGGTSRYYGDFVKGRFAISRDNAKNTTWLQMNSLKAEDTAVYYCASGERSTYIGSNYYRTNEYDYWGTGTQVTVSSGGGC
modifications: PEG40 on the C-terminal Cys of GGGC; branched or linear not stated for this assay
notes: also called P23IL0038; 119A3-81G2-PEG40
B5: the concentration for half-maximal inhibition (IC50) in assay [20] amounted to 0.032 nM.

B6: P23IL119A3-35GS-81G2 (bispecific antibody)
chain: EVQLVESGGGLVQAGGSLRLSCAASGRIFSLPASGNIFNLLTIAWHRQAPGMQRELVATINSGSRTNYADSVKGRFTISRDNAQKTVYLQMNNLKPEDTAVYYCQTSGSGSPNFWGQGTQVTVSSGGGGSGGGGSGGGGSGGGGSGGGGSGGGGSGGGGSEVQLVESGGGLVQPGGSLRLSCIASGLPFSTKSMGWFRQAPGKEREFVARISPGGTSRYYGDFVKGRFAISRDNAKNTTWLQMNSLKAEDTAVYYCASGERSTYIGSNYYRTNEYDYWGTGTQVTVSS
Take B6: the “IC50, splenocyte assay, 19 pM hIL-23” value in assay [26] is 14 pM; in [7] it was 12 pM. In addition, in assay [6], the “IC50, splenocyte assay, 3.8 pM cIL-23” value was 13 pM. Further, in [27], the “IC50, splenocyte assay, 19 pM native hIL-23 (Expt 1)” value is 76 pM and 153 pM.
